Source: patent US20260234241A1 (SHANGHAI QILU PHARMACEUTICAL RESEARCH AND DEVELOPMENT CENTRE, published 2026)
Read-outs that look alike come from different tables or passages of the source.

How the values were obtained:
human BCMA (on cells) [1] = biological target: T1, human BCMA (on cells) (human, UniProt Q02223 1-184); assay: FACS, human BCMA-CHOK1 cells, anti-human IgG Fc PE secondary, MFI
T1 construct: Full length, on transfected CHOK1 cells; also used as the target of the BCMA/CD3 bispecific Teclistamab on NCI-H929 and RPMI8226 cells; also called Human BCMA CHOK1
T1 sequence: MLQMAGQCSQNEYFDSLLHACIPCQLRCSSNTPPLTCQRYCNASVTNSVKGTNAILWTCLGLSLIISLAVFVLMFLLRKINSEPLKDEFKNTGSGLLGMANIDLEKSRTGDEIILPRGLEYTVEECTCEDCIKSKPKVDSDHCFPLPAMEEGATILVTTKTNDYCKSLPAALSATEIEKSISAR

[2] = biological target: T2, cynomolgus monkey BCMA (on cells) (cynomolgus monkey, UniProt Q02223 1-184 (human entry)); assay: FACS, cynomolgus monkey BCMA-CHOK1 cells, anti-human IgG Fc PE secondary, MFI
T2 construct: also called cyno-BCMA; cyno BCMA CHOK1
T2 sequence (Q02223 other isoform, or with tags, fused parts or gaps): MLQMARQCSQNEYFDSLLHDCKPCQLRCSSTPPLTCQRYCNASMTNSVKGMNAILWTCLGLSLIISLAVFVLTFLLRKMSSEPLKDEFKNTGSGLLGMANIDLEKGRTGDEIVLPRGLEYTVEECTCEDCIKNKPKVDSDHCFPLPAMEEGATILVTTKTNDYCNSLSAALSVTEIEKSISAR

[3] = biological target: T2, cynomolgus monkey BCMA (on cells); assay: FACS on cynomolgus BCMA-CHOK1 cells
human BCMA (on cells) [4] = biological target: T1, human BCMA (on cells); assay: FACS on human BCMA-CHOK1 cells
human BCMA (on cells) [5] = biological target: T1, human BCMA (on cells); assay: FACS, human BCMA-CHOK1 cells, anti-human IgG Fc PE secondary, MFI; remark: listed apart in the source

B1: 19CH-16H2L2 (antibody, IgG1, V domains shown)
VH: QVQLVQSGAEVKKPGASVKVSCKASGFTFRSSYISWVRQAPGQGLEWIAWIYAGSGNTDYNQKFTGRVTMTVDTSTSTVYMELSSLRSEDTAVYYCARHYDPPHYFDYWGQGTLVTVSS
VL: DIQLTQSPSSLSASVGDRVTITCSASSGVSHMHWYQQKPGKAPKRWIYDTSKLTSGVPSRFSGSGSGTDFTLTISSLQPEDFATYYCQQWSRNPWTFGQGTKVEIK
notes: also called humanized anti-BCMA antibody (19CH-16H2L2)
EC50 (read off the curve) (human BCMA (on cells) [1]): ~1 nM | EC50 (read off the curve) [2]: ~3 nM

B2: 19CH-16H2L2-QT (antibody, V domains shown)
VH: QVQLVQSGAEVKKPGASVKVSCKASGFTFRSSYISWVRQAPGQGLEWIAWIYAGSGQTDYNQKFTGRVTMTVDTSTSTVYMELSSLRSEDTAVYYCARHYDPPHYFDYWGQGTLVTVSS
VL: DIQLTQSPSSLSASVGDRVTITCSASSGVSHMHWYQQKPGKAPKRWIYDTSKLTSGVPSRFSGSGSGTDFTLTISSLQPEDFATYYCQQWSRNPWTFGQGTKVEIK
EC50 [3]: 9.05 nM | EC50 (human BCMA (on cells) [4]): 7.76 nM

B3: 19CH-16 (antibody, IgG1, V domains shown)
VH: QGQMQQSGAELVKPGTSVKLSCKTSGFTFRSSYISWLQQKPGQSLEWIAWIYAGSGNTDYNQKFTGKAQLTVDTSSSTAYMQFSSLTTEDSAIYYCARHYDPPHYFDYWGQGTTLTVSS
VL: QIVLTQSPAIMSASPGEKVTMTCSASSGVSHMHWYQQKSGTSPKRWIYDTSKLTSGVPTRFSGTGSGTSYSLSISSMEAEDAATYYCQQWSRNPWTFGGGTKLEIK
notes: also called anti-BCMA chimeric antibody (19CH-16) derived from mouse hybridoma
EC50 (read off the curve) (human BCMA (on cells) [5]): ~2 nM
